PMC6433694

How the values were obtained:
[1] = western blot of eIF4E, Huh7 and PLC/PRF/5; details: glycan lost; control: control shRNA
[2] = western blot of exogenous eIF4E, Huh7; details: glycan lost; control: wild-type eIF4E
[3] = cycloheximide chase, western blot, Huh7; details: glycan lost; control: wild-type eIF4E
[4] = Flag IP, anti-ubiquitin blot, MG132-treated Huh7; details: glycan lost; control: wild-type eIF4E

Row | Substance | expression_or_secretion [1] | expression_or_secretion [2] | degradation_or_half_life [3] | other: ubiquitination [4]
1 | eukaryotic initiation factor 4E (eIF4E): OGT shRNA1 / OGT shRNA2 | decreases |  |  | 
2 | eukaryotic initiation factor 4E (eIF4E): T168,177A |  | decreases | decreases | increases
3 | eukaryotic initiation factor 4E (eIF4E): T168A |  | decreases | decreases | increases
4 | eukaryotic initiation factor 4E (eIF4E): T177A |  | decreases | decreases | increases
